In patent US20190367586A1 (VANDERBILT UNIVERSITY, published 2019):

Experiments:
[1] = target: F protein of RSV strain Long (infectious virus) (human respiratory syncytial virus …, UniProt P12568 26-574); assay: cell-based or functional assay
[2] = target: F protein of RSV strain A2 (infectious virus) (human respiratory syncytial virus …, UniProt P03420 26-574); assay: cell-based or functional assay
[3] = target: F protein of RSV strain 18537 B (infectious virus) (human respiratory syncytial virus …, UniProt P13843 26-574); assay: cell-based or functional assay
[4] = target: T1, RSV strain A2 pre-fusion F protein (SC-TM) (human respiratory syncytial virus …, UniProt P03420 26-513); assay: ELISA, F protein coated
T1 construct: not shown: fold-on trimerization domain and polyhistidine tag

[5] = target: T2, RSV strain 18537 post-fusion F (human respiratory syncytial virus …, UniProt P13843 26-109; P13843 137-524); assay: ELISA, F protein coated
T2 construct: extracellular domain; also called RSV B 18537 (post)

[6] = target: RSV strain A2 pre-fusion F protein (SC-TM) (human respiratory syncytial virus …, UniProt P03420 26-513); assay: ELISA, F protein coated
[7] = target: T3, RSV strain A2 post-fusion F (human respiratory syncytial virus …, UniProt P03420 26-109; P03420 137-524); assay: ELISA, F protein coated
T3 construct: extracellular domain

[8] = target: F protein of RSV strain A2 (infectious virus) (human respiratory syncytial virus …, UniProt P03420 26-574); assay: cell-based or functional assay; remark: listed apart in the source

Binder | Neutralization IC50, plaque-reduction assay [1] [µg/mL] | Neutralization IC50, plaque-reduction assay [2] [µg/mL] | Neutralization IC50, plaque-reduction assay [3] [µg/mL] | EC50 [4] [µg/mL] | EC50 [5] [µg/mL] | EC50 [6] [µg/mL] | EC50 [7] [µg/mL] | Neutralization IC50, plaque-reduction assay [8] [µg/mL]
hRSV7 (antibody, V domains shown) VH: EVQLVESGGGLVQPGGSLRLSCAASGFTFRNYAMSWVRQAPGKGLEWVSDISSGGDTTYYAESLKGRITISRDNSKNTLYLQMNSLRAEDAAIYFCAKHLLSPMYVNTDVFPDWYFEIWGRGTLVTVSS VL: SYELTQPPSVSVSPGQTARITCSGDGLPKKYAYWYQQKSGQAPVLVIYDDSKRPSGIPERFSGTSSGTMATLIISGAQVEDEADYYCYSRHNSAYQRVFGAGTQLTVL | 0.062 | 1.33 | 0.022 |  |  |  |  | 
D25 (antibody, V domains shown) VH: QVQLVQSGAEVKKPGSSVMVSCQASGGPLRNYIINWLRQAPGQGPEWMGGIIPVLGTVHYAPKFQGRVTITADESTDTAYIHLISLRSEDTAMYYCATETALVVSTTYLPHYFDNWGQGTLVTVSS VL: DIQMTQSPSSLSAAVGDRVTITCQASQDIVNYLNWYQQKPGKAPKLLIYVASNLETGVPSRFSGSGSGTDFSLTISSLQPEDVATYYCQQYDNLPLTFGGGTKVEIKR | 0.009 |  | > 1 |  |  |  |  | 
hRSV139 (antibody, V domains shown) VH: QVQLVQSGAEVKKPGASVKVSCKASGYVFSNYGISWVRQAPGQGLEWMGWISAYNGNTEFAQKFQGRITMTTDTSTNTAYLEVRGLRSDDTAVYYCSRQSGVSGVPEFQDWGQGTLVTVSS VL: QAVVTQSPLSLPVTLGQPASISCRSSQSLVYSNGDTYLSWFQQRPGQSPRRLIYKVSNRDSGVPDRFSASGSGTDFTLKISRVEAEDVGVYYCMQGTHWPPPTFGQGTRLEIK | 0.07 | 0.621 | 0.216 | 0.04 |  |  |  | 
hRSV106 (antibody, V domains shown) VH: QITLKESGPTLVKPTQTLTLTCTFSGFSLTTRGVGVAWIRQPPGKALEWLALIYWDDDKRYRSSPKGRLTITKDNSKNQVVLIMTNMDPVDTATYYCAHAMDDSGSYYVGLSKDPHFDSWGHGTLVTVSS VL: SYELTQPPSVSVSPGQTASITCSGDVLFNKFASWYQQKPGQSPVLVIYQDSKRPSGIPERFSGSNSGNTATLTIRGTQAMDEADYYCQARGSTAAHVIFGGGTKVTVL | 0.043 | 0.451 | 0.114 | 0.046 |  |  |  | 
hRSV61 (antibody, V domains shown) VH: QVQLVQSGAELKKPGASVKVSCKASGYTFTNHGITWVRQAPGQGLEWMSWISGYNGNTQYAQKFQGRVTMTTDTSTRTAYMELRSLTSDDTAVYYCARDNGVVVGPPDYWGQGTLVTVSS VL: DIQMTQSPSTLSASVGDRVTISCRASQSISSWLAWYQQKPGKPPKLLIYKASGLQTGVPSRFSGSGSGTEFTLTISSLQPDDFATYYCQYYHSLSAFGQGTKVEIK | 0.054 | 0.276 | 0.09 | 0.027 |  |  |  | 
hRSV90 (antibody, V domains shown, also called mAb hRSV90) VH: EVQLVESGGGLVQPRRSLRLSCAASGFTFDDYTIHWVRQAPGKGLEWVSGITWNSGYIGYADSVKGRFTISRDNARNSLYLQMNSLRAEDTALYYCVRDAYVSGSDYYYYGLDVWGRGTLVTVSS VL: EIVMTSSPATLSVSPGERATLFCRASQSVISNLAWYQQKSGQAPRLLIYGASTRATGIPARFSGSGSGTEFTLTISSLQSEDFAVYFCQQYNNWPLTFGGGTQVNVQ | 0.035 | 0.015 | 0.045 | 0.028 |  |  |  | 
motavizumab (antibody, V domains shown) VH: QVTLRESGPALVKPTQTLTLTCTFSGFSLSTAGMSVGWIRQPPGKALEWLADIWWDDKKHYNPSLKDRLTISKDTSKNQVVLKVTNMDPADTATYYCARDMIFNFYFDVWGQGTTVTVSS VL: DIQMTQSPSTLSASVGDRVTITCSASSRVGYMHWYQQKPGKAPKLLIYDTSKLASGVPSRFSGSGSGTEFTLTISSLQPDDFATYYCFQGSGYPFTFGGGTKVEIK | 0.009 |  | 0.091 |  | 0.084 | 0.017 | 0.083 | 0.123
palivizumab (antibody, V domains shown) VH: QVTLRESGPALVKPTQTLTLTCTFSGFSLSTSGMSVGWIRQPPGKALEWLADIWWDDKKDYNPSLKSRLTISKDTSKNQVVLKVTNMDPADTATYYCARSMITNWYFDVWGAGTTVTVSS VL: DIQMTQSPSTLSASVGDRVTITCKCQLSVGYMHWYQQKPGKAPKLLIYDTSKLASGVPSRFSGSGSGTEFTLTISSLQPDDFATYYCFQGSGYPFTFGGGTKLEIK | 0.212 |  | 1.27 |  | 0.081 |  | 0.024 | 11
AM14 (antibody, V domains shown) VH: EVQLVESGGGVVQPGRSLRLSCAASGFSFSHYAMHWVRQAPGKGLEWVAVISYDGENTYYADSVKGRFSISRDNSKNTVSLQMNSLRPEDTALYYCARDRIVDDYYYYGMDVWGQGATVTVSS VL: DIQMTQSPSSLSASVGDRVTITCQASQDIKKYLNWYHQKPGKVPELLMHDASNLETGVPSRFSGRGSGTDFTLTISSLQPEDIGTYYCQQYDNLPPLTFGGGTKVEIKR | 0.043 |  |  |  | 0.198 |  |  | 
hRSV20 (antibody, V domains shown) VH: QVQLVESGGGLVQPGRSLRLSCAASGFTFDDYAMHWVRQAPGRGLEWVSGISWNSGIAVYADSVKGRFTISRDNAKKSLYLQINSLRAEDTALYYCVKDNYASGSYSSYYYYYGLDLWGQGTLVTVSS VL: EIVMTQSPATLSVSPGERATLSCRASQSIISNLAWYQQKPGQAPRLLIYGVSTRATGIPARFSGSGSDTEFTLSISSLQSEDFAVYYCQQYNNWPITFGQGTRLEIK | 0.014 | 0.034 | 0.114 |  |  |  |  | 
hRSV141 (antibody, V domains shown) VH: QVQLVQSGAEVKKPGASVKVSCKASGYTFTNYYMHWVRQAPGQGLEWMGWINPNRGGTNYAQKFQGRVTMTLDTSISTAYIELSRLRSDDTAVYYCARDLTLGTDYWGQGTLVTVSS VL: QAVVTQPASVFGFPGQSITISCTGTSSDVGGYNYVSWYQQRPGKAPKLMIYEVSNRPSGVSNRFSGSKSGNTASLTISGLQAEDEADYYCNSYTSSNSYVFGTGTKVTVL | 0.028 | 0.626 | 0.053 | 0.029 |  |  |  | 
hRSV97 (antibody, V domains shown) VH: EVQLVESGGTLVQPGRSLRLSCAASGFNFEEYAMHWVRQVPGKGLEWVARINWNGGIIGYADSVKGRFTISRDNAKKSLYLQMNSLRTDDSALYYCGKDVFWAVAGTGGPIDSWGQGTLVTVSS VL: DIVMTQSPSSLSASIGDRVTISCRASRDISNYLAWYQQKSGKVPKLLIYAASTLESGVPSRFSGSGSGTDFTLTISSLQPEDVATYYCQNYNSAQMCSFGQGPSLEIK | 0.106 | 2.23 | 0.065 | 0.053 |  |  |  | 
hRSV12 (antibody, V domains shown) VH: QVQLVQSGAEVKKPGTSVRVSCKTSGYNFMNYGIYWVRQAPGQGLEWVGWISAYNGQTDRAQKFQGRVTMTTDISTNTGYMDLRSLRSDDTAVYFCARGPPVIAAVSLEYWGRGTLVTVSS VL: EVVMTQSPLSLPVTLGQPASISCKSSQSLVHSNGDTYLNWFQQRPGQSPRRLIYKVSNRDSGVPDRFSGSGSGTDFTLKISRVETEDVGVYYCMQATHWPGSFGQGTKLEIK | 0.016 | 0.141 | 0.443 | 0.028 |  |  | 0.285 | 
hRSV75 (antibody, V domains shown) VH: EVQLVESGGGLVKPGGSLRLSCAASGFTFRSYSMNWVRQAPGKGLEWVSSITSSSSYIDYADSVKGRFTISRDNAKNSLYLQMNSLRAEDTAVYYCARAYCGGDCSVDHFQHWGQGTLVTVSS VL: QSVLTQPPSVSGAPGQRVTISCTGSSSNIGAGYDVHWYQHLPGTAPKLLIYVNSNRPSGVPDRFSASKSGTSASLAITGLQAEDEADYYCQSYDKSLSGFYVFGTGTKVTVL | 0.019 | 0.129 | 0.062 | 0.044 |  |  |  | 
